In patent US20030125257:

Target: 19 peptidomimetic BACE inhibitors

B1: purified full-length human BACE with six C-terminal His residues, expressed in Sf9 insect cells (protein)
chain: ETDEEPEEPGRRGSFVEMVDNLRGKSGQGYYVEMTVGSPPQTLNILVDTGSSNFAVGAAPHPFLHRYYQRQLSSTYRDLRKGVYVPYTQGKWEGELGTDLVSIPHGPNVTVRANIAAITESDKFFINGSNWEGILGLAYAEIARPDDSLEPFFDSLVKQTHVPNLFSLQLCGAGFPLNQSEVLASVGGSMIIGGIDHSLYTGSLWYTPIRREWYYEVIIVRVEINGQDLKMDCKEYNYDKSIVDSGTTNLRLPKKVFEAAVKSIKAASSTEKFPDGFWLGEQLVCWQAGTTPWNIFPVISLYLMGEVTNQSFRITILPQQYLRPVEDVATSQDDCYKFAISQSSTGTVMGAVIMEGFYVVFDRARKRIGFAVSACHVHDEFRTAAVEGPFVTLDMEDCGYNIPQTDESTLMTIAYVMAAICALFMLPLCLMVCQWRCLRCLRQQHDDFADDISLLKHHHHHH
- FRET assay (proteolytic activity of beta-secretase): test compounds inhibiting the binding of a tagged beta-secretase to beta-secretase also inhibit the proteolytic activity of beta-secretase leading to production of A-beta over a broad range of IC-50 values
